The target in the experiment is Full-length human histidine-tagged p300 (human) (UniProt Q09472). Put plainly: cell-based or functional assay.
Chain of Full-length human histidine-tagged p300 (human) (Q09472 2-2414): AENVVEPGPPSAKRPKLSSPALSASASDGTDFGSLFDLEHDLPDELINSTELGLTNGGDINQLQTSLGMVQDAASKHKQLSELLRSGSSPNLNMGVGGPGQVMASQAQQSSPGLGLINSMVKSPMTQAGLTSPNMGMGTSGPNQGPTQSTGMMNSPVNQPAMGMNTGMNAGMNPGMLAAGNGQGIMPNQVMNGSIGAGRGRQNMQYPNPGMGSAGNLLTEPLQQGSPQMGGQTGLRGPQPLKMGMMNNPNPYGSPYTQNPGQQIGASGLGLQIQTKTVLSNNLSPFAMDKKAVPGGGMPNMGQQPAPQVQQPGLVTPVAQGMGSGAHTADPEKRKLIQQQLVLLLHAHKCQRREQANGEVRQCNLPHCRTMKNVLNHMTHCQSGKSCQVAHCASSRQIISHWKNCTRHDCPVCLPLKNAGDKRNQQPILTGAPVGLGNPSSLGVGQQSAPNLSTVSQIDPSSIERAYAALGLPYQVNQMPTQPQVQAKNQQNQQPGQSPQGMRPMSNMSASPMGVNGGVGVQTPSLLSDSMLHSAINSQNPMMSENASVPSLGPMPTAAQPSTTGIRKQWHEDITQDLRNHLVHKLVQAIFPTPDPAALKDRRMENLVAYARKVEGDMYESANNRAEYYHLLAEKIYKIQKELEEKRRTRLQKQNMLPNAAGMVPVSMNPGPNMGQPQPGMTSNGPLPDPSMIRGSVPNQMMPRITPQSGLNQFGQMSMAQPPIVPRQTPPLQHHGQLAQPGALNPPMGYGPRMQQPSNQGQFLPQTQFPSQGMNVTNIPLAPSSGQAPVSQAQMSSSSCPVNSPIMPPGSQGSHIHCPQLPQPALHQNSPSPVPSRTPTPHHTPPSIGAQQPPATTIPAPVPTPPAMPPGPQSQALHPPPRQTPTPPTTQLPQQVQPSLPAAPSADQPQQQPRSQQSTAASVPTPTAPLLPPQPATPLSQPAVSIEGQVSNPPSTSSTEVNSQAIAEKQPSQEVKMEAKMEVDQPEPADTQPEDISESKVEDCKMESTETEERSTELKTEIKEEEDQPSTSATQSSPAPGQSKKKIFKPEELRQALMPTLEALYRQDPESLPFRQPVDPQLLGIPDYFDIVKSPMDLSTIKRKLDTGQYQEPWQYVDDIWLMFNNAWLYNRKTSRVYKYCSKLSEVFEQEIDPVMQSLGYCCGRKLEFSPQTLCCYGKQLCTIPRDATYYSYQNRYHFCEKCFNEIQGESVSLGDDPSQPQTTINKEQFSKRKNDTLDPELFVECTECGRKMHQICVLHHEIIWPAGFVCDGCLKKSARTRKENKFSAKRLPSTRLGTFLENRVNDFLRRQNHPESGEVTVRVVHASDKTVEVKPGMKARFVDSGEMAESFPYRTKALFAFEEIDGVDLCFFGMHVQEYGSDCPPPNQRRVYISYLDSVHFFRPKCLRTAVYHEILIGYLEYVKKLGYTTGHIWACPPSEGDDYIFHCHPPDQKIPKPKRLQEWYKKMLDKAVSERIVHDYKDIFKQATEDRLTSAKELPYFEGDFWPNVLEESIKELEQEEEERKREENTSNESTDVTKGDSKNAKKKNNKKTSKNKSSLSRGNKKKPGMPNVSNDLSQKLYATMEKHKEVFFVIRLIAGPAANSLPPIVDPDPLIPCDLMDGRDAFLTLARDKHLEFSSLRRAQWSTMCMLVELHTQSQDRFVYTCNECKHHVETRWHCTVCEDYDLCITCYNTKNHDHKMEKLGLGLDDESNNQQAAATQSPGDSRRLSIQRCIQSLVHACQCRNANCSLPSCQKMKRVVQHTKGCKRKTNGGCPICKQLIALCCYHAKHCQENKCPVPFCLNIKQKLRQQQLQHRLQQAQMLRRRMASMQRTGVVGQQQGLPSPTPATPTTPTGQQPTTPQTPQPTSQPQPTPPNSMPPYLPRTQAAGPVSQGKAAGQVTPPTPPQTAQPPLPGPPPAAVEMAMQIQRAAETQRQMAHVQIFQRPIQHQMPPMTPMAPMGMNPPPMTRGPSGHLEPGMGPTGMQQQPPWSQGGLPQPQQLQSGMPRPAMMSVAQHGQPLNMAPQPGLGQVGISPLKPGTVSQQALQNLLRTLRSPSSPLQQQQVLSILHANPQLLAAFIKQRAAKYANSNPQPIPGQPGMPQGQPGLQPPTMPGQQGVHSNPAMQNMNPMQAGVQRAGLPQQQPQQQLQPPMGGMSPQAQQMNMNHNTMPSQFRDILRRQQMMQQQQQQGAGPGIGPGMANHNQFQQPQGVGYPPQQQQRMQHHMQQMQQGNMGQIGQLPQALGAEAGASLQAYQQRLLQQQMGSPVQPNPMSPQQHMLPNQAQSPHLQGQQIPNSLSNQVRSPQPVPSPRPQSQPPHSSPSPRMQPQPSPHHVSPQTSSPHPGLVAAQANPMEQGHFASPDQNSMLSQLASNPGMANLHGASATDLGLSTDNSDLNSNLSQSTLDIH

On to “Full-length human Flag-tagged p53 (native, unacetylated) (from UniProt P04637 1-393)”, for which the increased acetylation in a distal region 2 kb downstream of the proximal promoter of the p21-LUC plasmid (in vitro chromatin immunoprecipitation with anti-acetyl-H4) was 1.4 fold and the increased acetylation near the 3' p53 binding site of the p21-LUC plasmid (in vitro chromatin immunoprecipitation with anti-acetyl-H4) is 3.4 fold.
